The target of this assay is enhanced GFP (EGFP).

Consider “E. coli dihydrofolate reductase (eDHFR) (from UniProt P0ABQ4 1-159) (enzyme)”, for which the t1/2 of the normalized PCC increase between mCherry-eDHFR and EGFP-mito over time in live HeLa cells with 24 uM cRGT amounted to 7.26 min.

For the origin of these results see article PMC10039045.
